Experimental data published in patent US20240390468A1, “SURVIVIN AND MAGE-A9 DUAL-TARGETED IMMUNOTHERAPY” (IMMUNOVACCINE TECHNOLOGIES INC., priority 2022, published 2024).

System: splenocytes of A2/DR1 mice
Assay: IFN-γ ELISA after stimulation of spleen cells with peptides
Assay type: cell-based
Experimental: FIG. 25 depicts cytokine response upon stimulation with reactive HLA-A2 MAGE-A9 peptides. Groups of three A2/DR1 mice were either not immunized (naive mice) or immunized twice with a pool of four reactive peptides in CTL assays (M9-A2-24; M9-A2-111; M9-A2-223; M9-A2-270) or with adjuvants only, as control. Mice were sacrificed after 28 days and spleens were collected for isolation of splenocytes. Splenocytes were restimulated for 72 h with either individual peptides or the peptide pool. Supernatant was collected and assayed by ELISA for secretion of murine INF-7. Bars represent mean of triplicate plus or minus standard deviation (SD). Tukey's multiple comparisons test was used to determine adjusted p values. *=p<0.05, **=p<0.01, ***=p<0.001, ****=p<0.0001.
INF-γ secreted after stimulation of spleen cells with the four peptides were tested by ELISA.
Supernatants from cultures of whole splenocytes stimulated with the irradiated splenocytes loaded with the peptides were collected after 72 hours of stimulation and the amounts of IFN-γ were estimated by sandwich ELISA using the mouse IFN-γ ELISA Max set Deluxe kit (BioLegend, San Diego, CA).

B1: recombinant MAGE-A9: his-tag MAGE-A9 full-length recombinant protein used as immunogen admixed with poly(I:C) (protein, UniProt P43362 1-315, looked up)
chain: MSLEQRSPHCKPDEDLEAQGEDLGLMGAQEPTGEEEETTSSSDSKEEEVSAAGSSSPPQSPQGGASSSISVYYTLWSQFDEGSSSQEEEEPSSSVDPAQLEFMFQEALKLKVAELVHFLLHKYRVKEPVTKAEMLESVIKNYKRYFPVIFGKASEFMQVIFGTDVKEVDPAGHSYILVTALGLSCDSMLGDGHSMPKAALLIIVLGVILTKDNCAPEEVIWEALSVMGVYVGKEHMFYGEPRKLLTQDWVQENYLEYRQVPGSDPAHYEFLWGSKAHAETSYEKVINYLVMLNAREPICYPSLYEEVLGEEQEGV
modifications: full-length His tag
Q: For B1, which “subtype of T cells induced after immunization” value is on record?
A: Th1 subtype
